The assay addresses T1, HLA-DRB1*11:01 (human, UniProt P01911 30-227; P01903 26-216).
T1 construct: whole, on cells; Class II molecule on irradiated, partially HLA-matched PHA-blasts; Only the DRB1 allele is printed; also called HLA-DR11
In words: restriction testing: IFN-γ ELISpot of CSTs with partially HLA-matched PHA-blasts pulsed with peptide (indirect read-out).

B1: Membrane peptide 37 (AA 145-160) (peptide)
peptide: LRGHLRIAGHHLGRC
notes: also called LRGHLRIAGHHLGRC
As for B1, the binding result is “binds”.

For the origin of these results see patent US20220160767A1 (CHILDREN S NATIONAL MEDICAL CENTER, published 2022).
